Experimental data from publication PMC9396027, “Comparative transcriptome analysis of MDBK cells reveals that BoIFN-γ augmented host immune responses to bovine herpesvirus 1 infection” (Frontiers in Microbiology, 2022).

Molecular target: the molecule itself
Test: SEC; Superdex 200 size exclusion column, refolded BoIFN-γ; peak mass compared with the monomer mass (14.2 kDa)

B1: Bovine interferon gamma (BoIFN-γ) (ligand, UniProt P07353 24-166, looked up)
chain: QGQFFREIENLKEYFNASSPDVAKGGPLFSEILKNWKDESDKKIIQSQIVSFYFKLFENLKDNQVIQRSMDIIKQDMFQKFLNGSSEKLEDFKKLIQIPVDDLQIQRKAINELIKVMNDLSPKSNLRKRKRSQNLFRGRRASM
notes: Bovine interferon gamma; synthesised gene encoding 122 amino acids, according to GenBank EU276066, nucleotides 24-390; monomer 14.2 kDa; Cloned into pET-21a(+); 122 amino acids is shorter than the mature protein as I recall it, so the construct is probably truncated; also called Bovine IFN-γ; bovine interferon gamma dimer protein
For B1, which “stoichiometry N” value is on record?
The value was 2.
